Assay results from US11160876B2, “Methods and compositions for targeting t-cell cancers” (Mayo Foundation for Medical Education and Research, priority 2016, dated 2021).

Molecular target: Abraxane (Homo sapiens, UniProt P02768)
Assay: Bio-layer interferometry (BLItz) binding affinity of OKT3 and Abraxane
Experimental: To understand the characteristics of the nanoparticles formed when binding OKT3 to Abraxane, the binding affinity of the complex was determined by a Bio-layer interferometry (BLItz) assay, which is an optical technology that uses interference of white light reflection to determine binding affinities of 2 proteins
In a BLItz assay, if the 2 proteins bind, the reflected light changes wavelength in a manner that correlates to the binding affinity of the 2 proteins. Here biotinylated OKT3 at 100 ug/ml was immobilized on a streptavidin-containing probe and exposed to Abraxane at 2 concentrations-500 ug/ml (Run 2) and 1000 ug/ml (Run 3)
In the case of the anti-human CD3 antibody (OKT3) and Abraxane, biotinylated OKT3 at 100 ug/ml was immobilized on a streptavidin-containing probe. The OKT3 bearing probe was then immersed in Abraxane at 2 concentrations, 500 ug/ml and 1000 ug/ml (Run 2 and Run 3). […] The association and dissociation constants on the proteins were calculated by the BLItz software.

With muromonab-CD3 [OKT3] the “binding of Abraxane to immobilized OKT3” value (OKT3 bearing probe immersed in Abraxane at 500 ug/ml and 1000 ug/ml (Run 2 and Run 3)) was “concentration dependent manner” and the Kd (biotinylated OKT3 at 100 ug/ml immobilized on streptavidin-containing probe, Abraxane at 500 ug/ml and 1000 ug/ml, calculated by BLItz software, read-out: dissociation constant (Kd) of OKT3 and Abraxane) was 2.25 nM.
